Measured values: patent US20120253009A1
Bridge positions count the residues as written; N and C are the ends. Ends that are not written are not given here.

Target: human mpl receptor (human) (UniProt P40238)
Test: cell-based or functional assay

Pb EC50 [ng/mL] | Binder
2.31 | CSSGGPTLREWQQCGRAQ (Fc fusion, part only; not given: Fc-Loop scaffold and insertion site, part only, disulfide 1-14 (inferred); also: inserted into an Fc-Loop, Fc, site and spacers not given here) [Fc-Loop-(SEQ ID NO: 10)]
0.27 | CSSGGPTLREWQQCQRAQ (Fc fusion, part only; not given: Fc-Loop scaffold and insertion site, part only, disulfide 1-14 (inferred); also: inserted into an Fc-Loop, Fc, site and spacers not given here) [Fc-Loop-(SEQ ID NO: 9)]
0.28 | CSSGGPTLREWQQCSRAQ (Fc fusion, part only; not given: Fc-Loop scaffold and insertion site, part only, disulfide 1-14 (inferred); also: inserted into an Fc-Loop, Fc, site and spacers not given here) [Fc-Loop-(SEQ ID NO: 8)]
